In patent US6017747A, “Nucleic acids encoding a collagenase” (The Regents of the University of California, priority 1997, dated 2000):

T1: recombinant collagenase (Leptuca pugilator, UniProt P00771)
T1 construct: the mature form of the cloned collagenase (illustrated in the boxed section) has 226 amino acid residues; made in house; host or cells: Saccharomyces cerevisiae (strain AB110 or DM101α), PyFC vector
T1 sequence (P00771 1-226 V95S): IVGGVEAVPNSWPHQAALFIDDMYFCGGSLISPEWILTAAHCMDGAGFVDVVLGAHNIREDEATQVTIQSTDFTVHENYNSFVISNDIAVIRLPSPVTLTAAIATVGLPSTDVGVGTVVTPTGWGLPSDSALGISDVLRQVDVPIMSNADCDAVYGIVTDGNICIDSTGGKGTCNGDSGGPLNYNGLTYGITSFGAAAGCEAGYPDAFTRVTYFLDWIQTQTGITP


How the values were obtained:
[1] = Steady state kinetics versus the Suc-AAP-Xaa-pNA substrate set; format: biochemical; details: for r of correlation for log kcat or log (kcat /Km) versus P1 residue volume: Val and Ile omitted for chymotrypsin, Nva and Leu deleted for elastase; for correlation of log (kcat /Km) with π: hydrophobicity constant π
Protocol: Recombinant rat trypsin was purified by published techniques. Other reagents were purchased from the following sources: TLCK treated bovine chymotrypsin (Sigma), porcine elastase (Calbiochem), bovine calf skin collagen (US Biochemical), Suc-AAPAbu-pNA (Bachem of California) and Z-GPR-Sbzl (Enzyme Systems Products). All other substrates were from Bachem Bioscience. All enzyme active site titrations, substrate calibrations, kinetic assays and collagen digestions were carried out by conventional methods. Briefly, pNA kinetic assays were monitored at 410 nm (E410 =8,480 M^-1 cm^-1) in 50 mM Tris, 100 mM NaCl, 20 mM CaCl2, pH 8.0 at 25° C. 1 to 4% DMF or 2% Me2 SO was present in the final reaction buffer. Benzylthioester kinetic assays were monitored at 324 nm (E324 =19,800 M^-1 cm^-1) in the above buffer at 25° C. with the inclusion of 250 μM dithiodipyridine (Chemical Dynamics) and 2% DMF. AMC spectrofluorimetric assays were monitored at an excitation wavelength of 380 nm and an emission wavelength of 460 nm, under conditions identical to those for pNA. Assays were done in duplicate for 5 substrate concentrations, except for Suc-AAP-Asp-pNA, for which the kcat /Km was determined using 3 substrate concentrations in duplicate. The steady state kinetic parameters were determined by non-linear regression fit to the Michaelis Menten equation. Standard deviation in kcat /Km was generally less than 10%, though individual rate and binding constants varied to a greater extent. […] Kinetic parameters were plotted versus P1 residue volume and the hydrophobicity constant, π.
The Michaelis constants of the recombinant collagenase were determined for a matched set of 15 Suc-AAP-Xaa-pNA substrates, varying only in the P1 residue. […] The remaining 10 substrates Ala, Abu (2-aminobutyric acid), Nva (norvaline), Val, Nle (norleucine), Ile, Met, Orn (ornithine), Asp and Glu were selected to more fully map the specificity of crab collagenase for hydrophobic, basic and acidic residues. The substrate preference of the collagenase is quite broad. […] Acidic residues are generally poor substrates. […] This implies the existence of several distinct S1 sites or a single flexible site. […] The correlation is improved and slope essentially unchanged if only the hydrophobic residues Ala, Abu (2-aminobutyric acid), Nva (norvaline), Nle (norleucine), Leu, Met and Phe are included. […] It is unclear how the enzyme binds the neutral hydrophilic and basic residues so as to minimize the effects of charge or polarity in the transition state. Bias or insensitivity in the data set may also affect the interpretation of the correlations.
The steady state kinetic parameters of chymotrypsin and elastase versus the Suc-AAP-Xaa-pNA substrate set were determined under conditions identical to those for crab collagenase. This was necessary in order to accurately compare the activities of these different enzymes.

[2] = Single residue versus peptidyl P1-Ala substrate efficiency; format: biochemical
Protocol: (§1) Recombinant rat trypsin was purified by published techniques. Other reagents were purchased from the following sources: TLCK treated bovine chymotrypsin (Sigma), porcine elastase (Calbiochem), bovine calf skin collagen (US Biochemical), Suc-AAPAbu-pNA (Bachem of California) and Z-GPR-Sbzl (Enzyme Systems Products). All other substrates were from Bachem Bioscience. All enzyme active site titrations, substrate calibrations, kinetic assays and collagen digestions were carried out by conventional methods. Briefly, pNA kinetic assays were monitored at 410 nm (E410 =8,480 M^-1 cm^-1) in 50 mM Tris, 100 mM NaCl, 20 mM CaCl2, pH 8.0 at 25° C. 1 to 4% DMF or 2% Me2 SO was present in the final reaction buffer. Benzylthioester kinetic assays were monitored at 324 nm (E324 =19,800 M^-1 cm^-1) in the above buffer at 25° C. with the inclusion of 250 μM dithiodipyridine (Chemical Dynamics) and 2% DMF. AMC spectrofluorimetric assays were monitored at an excitation wavelength of 380 nm and an emission wavelength of 460 nm, under conditions identical to those for pNA. Assays were done in duplicate for 5 substrate concentrations, except for Suc-AAP-Asp-pNA, for which the kcat /Km was determined using 3 substrate concentrations in duplicate. The steady state kinetic parameters were determined by non-linear regression fit to the Michaelis Menten equation. […]

[3] = single residue esters; cited from earlier work
[4] = Single residue versus peptidyl P1-Phe substrate efficiency; format: biochemical
Protocol: as §1

recombinant collagenase = target: T1, recombinant collagenase; experiment: Inhibition of collagenolytic activity of recombinant collagenase; format: biochemical, Uca pugilator; details: recombinant enzyme
From the text: The collagenolytic activity of the recombinant collagenase was compared directly to that of the endogenous enzyme isolated from the crab hepatopancreas. The specificity and rate of collagen cleavage are similar.

[5] = Single residue versus peptidyl P1-Arg substrate efficiency; format: biochemical
Protocol: as §1

Row | Molecule | correlation for log kcat or log (kcat /Km) versus P1 residue volume [1] | correlation of Km versus volume [1] | sensitivity of log (kcat /Km) to residue volume [1] | r of correlation for log kcat or log (kcat /Km) versus P1 residue volume [1] | correlation of log (kcat /Km) with π [1] | kcat /Km differential, single residue versus peptidyl substrate [2] | slope of correlation of log (k2 /KS) with π [3] | kcat /Km differential, single residue versus peptidyl substrate [4] | inhibition of collagenolytic activity (recombinant collagenase) | kcat /Km differential, single residue versus peptidyl substrate [5]
1 | elastase: porcine elastase (Calbiochem) | negative | much weaker | twice that of collagenase | ≤ 0.95 | correlated well, with a slope equal and opposite that for chymotrypsin | 100,000 fold | – | – | – | –
2 | Chymotrypsin | Strong positive | tight negative correlation | twice that of collagenase | ≤ 0.95 | also correlated with π | – | 2.2 | 10,000 fold | – | –
3 | NCCc1ccc(S(=O)(=O)F)cc1 [AEBSF] | – | – | – | – | – | – | – | – | completely inhibited | –
4 | Trypsin: Recombinant rat trypsin purified by published techniques (protein, UniProt P00763 24-246, looked up) Anionic trypsin-2: IVGGYTCQENSVPYQVSLNSGYHFCGGSLINDQWVVSAAHCYKSRIQVRLGEHNINVLEGNEQFVNAAKIIKHPNFDRKTLNNDIMLIKLSSPVKLNARVATVALPSSCAPAGTQCLISGWGNTLSSGVNEPDLLQCLDAPLLPQADCEASYPGKITDNMVCVGFLEGGKDSCQGDSGGPVVCNGELQGIVSWGYGCALPDNPGVYTKVCNYVDWIQDTIAAN | – | – | – | – | – | – | – | – | – | 100 fold
